Measured values as given in patent US20150191515A1 (SYNTHETIC GENOMICS, published 2015).

T1: Hap-1742 (HapY), non-LEC1-type HAP3-like / NF-YB subunit of a CCAAT-box binding factor from Nannochloropsis … (Nannochloropsis gaditana)
T1 construct: also called Nannochloropsis NF-YB polypeptide
T1 chain: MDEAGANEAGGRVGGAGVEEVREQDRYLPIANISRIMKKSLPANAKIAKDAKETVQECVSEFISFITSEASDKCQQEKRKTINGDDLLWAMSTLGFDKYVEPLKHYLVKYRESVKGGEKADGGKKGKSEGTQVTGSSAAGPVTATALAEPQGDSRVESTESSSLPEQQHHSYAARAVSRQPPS


Tests used:
[1] = molecular target: T1, Hap-1742 (HapY), non-LEC1-type …; experiment: yeast two hybrid screen, Hap-1742 bait against Nannochloropsis cDNA prey library
Procedure: Based on these numbers, it is estimated that more than 10 million interactions were tested.

[2] = molecular target: T1, Hap-1742 (HapY), non-LEC1-type …; experiment: yeast two hybrid, NF-YA-1257 prey strain mated with Hap-1742 bait strain

Row | binding result [1] | binding result [2] | Binder
1 | binds |  | EUKT6092, Nannochloropsis NF-YC polypeptide (other, Yeast two hybrid prey clone from a cDNA library in pGADT7-rec (Clontech), in yeast strain Y2HGold; also called NF-Y C subunit; HAP5 polypeptide) MSGASGNGANPAVQQPYIPTDAEQAEHLQNLIRKLKDFWVEQLAEMETLSLASEQDFKNYIDLPLARIKRIMKSDEDVHMISAEVLVLFAKACEMFILELTIRSWCYSERSKRRTLQREDIQAAIANADILDFLVNIV
2 | binds |  | EUKT1490, Nannochloropsis NF-YC polypeptide (other, Yeast two hybrid prey clone from a cDNA library in pGADT7-rec (Clontech), in yeast strain Y2HGold; also called NF-Y C subunit; HAP5 polypeptide) MRLYRQIKKASMSRSPEVLQTSNSALSYASPSQAPSGAAIMMPTAPALPGRSTNTPNTQTGTEERKRDTPEGPKPSPLAGTPASMKAEEAPVSSKKARNAPIPPLSTSNAYVTEDTTLAIPRASIKRIMKLDPDTKQLSQDAIMVMAKATELFIDKLAKASHSMAVTNKRKTIKYEDIADARFSQKNMEFLDGVVPQIP
3 |  | binds | NF-YA-1257 (EUKT1257), Nannochloropsis NF-Y subunit A (other, The open reading frame was cloned into prey vector pGADT7 (Clontech) and expressed in yeast strain Y2HGold; also called CBF-B/NF-YA) MDGAETGSGGDSDSGGGRKKIVRPCSSAETSLSMDVTATSYQGTNFNHMLSHGAPASAMVETHDGEGSLCPFPFQPPPHQQHNLQYQQPQEHQMQQTYYGQMNDDGNNFYDHSPHMEGFEPLGAPQEAAGSDLGPQPIFVNPKQYERIMKRREARARLENHRKIAAERKPFLHKSRHLHAVKRPRGPGGRFLTKEERIAWDEEQAQLEGTSTMGAVHVSNEVAAKTLYSSAQASIAAGPPLASQQGSRHASPPFSSPLSSSSCLPPSASTPVAPSGPSSYCSSSPII
